Test results: paper PMC9381698, “Generation of synthetic antibody fragments with optimal complementarity determining region lengths for Notch-1 recognition” (Frontiers in Microbiology, 2022)

Experiments:
[1] = target: T1, Jagged-2 receptor ectodomain (Homo sapiens (assumed), UniProt Q9Y219); assay: ELISA; single-point Fab-ELISA for specificity: proteins immobilised at 5 ug/ml on MaxiSorp plates; purified Fab at 1 uM; detected with HRP-conjugated anti-HIS antibody, Abs450; details: both partners purified
T1 construct: Jagged-2 ectodomain; it may be an Fc fusion like the Notch proteins; also called J2
T1 sequence (Q9Y219 27-1080): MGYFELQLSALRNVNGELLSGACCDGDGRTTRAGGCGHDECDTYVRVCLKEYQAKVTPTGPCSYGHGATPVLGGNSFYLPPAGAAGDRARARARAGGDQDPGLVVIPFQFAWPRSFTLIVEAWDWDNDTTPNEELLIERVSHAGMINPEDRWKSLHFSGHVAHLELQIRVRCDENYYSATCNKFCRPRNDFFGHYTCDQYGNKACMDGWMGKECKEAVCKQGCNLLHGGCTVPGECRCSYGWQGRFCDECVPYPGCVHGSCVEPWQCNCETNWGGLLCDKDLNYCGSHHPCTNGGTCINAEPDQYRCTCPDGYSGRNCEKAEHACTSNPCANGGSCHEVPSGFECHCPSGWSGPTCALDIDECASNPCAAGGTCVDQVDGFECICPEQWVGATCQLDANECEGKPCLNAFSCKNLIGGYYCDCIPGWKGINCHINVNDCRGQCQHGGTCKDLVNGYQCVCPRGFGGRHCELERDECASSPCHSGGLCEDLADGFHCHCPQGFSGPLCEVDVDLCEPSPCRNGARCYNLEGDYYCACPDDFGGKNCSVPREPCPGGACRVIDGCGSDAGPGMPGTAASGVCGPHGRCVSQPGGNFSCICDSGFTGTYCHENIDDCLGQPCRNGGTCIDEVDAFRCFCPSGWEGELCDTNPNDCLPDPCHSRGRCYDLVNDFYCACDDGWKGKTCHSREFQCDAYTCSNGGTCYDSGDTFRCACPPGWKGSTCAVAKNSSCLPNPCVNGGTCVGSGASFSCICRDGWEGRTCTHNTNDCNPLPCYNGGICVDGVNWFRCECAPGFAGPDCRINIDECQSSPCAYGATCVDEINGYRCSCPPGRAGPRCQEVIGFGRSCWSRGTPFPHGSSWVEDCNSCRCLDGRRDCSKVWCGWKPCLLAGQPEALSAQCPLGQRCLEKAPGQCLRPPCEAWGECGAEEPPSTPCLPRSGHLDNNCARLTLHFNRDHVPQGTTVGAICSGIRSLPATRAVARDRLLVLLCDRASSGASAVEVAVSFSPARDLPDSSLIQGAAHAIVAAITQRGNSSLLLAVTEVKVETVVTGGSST

[2] = target: T2, recombinant Fc-tag-fused human Notch-1 extracellular domain (Homo sapiens, UniProt P46531); assay: ELISA; multi-point Fab-ELISA: target immobilised at 5 ug/ml on MaxiSorp plates; purified Fab 0.01 nM-1 uM in PT for 30 min; detected with HRP-conjugated anti-HIS antibody; EC50 from a one-site specific-binding fit; details: both partners purified
T2 construct: Notch-1, human, extracellular domain; No catalogue number and no residue limits are printed; also called N1; source: bought: R&D Systems
T2 sequence (P46531 19-1735): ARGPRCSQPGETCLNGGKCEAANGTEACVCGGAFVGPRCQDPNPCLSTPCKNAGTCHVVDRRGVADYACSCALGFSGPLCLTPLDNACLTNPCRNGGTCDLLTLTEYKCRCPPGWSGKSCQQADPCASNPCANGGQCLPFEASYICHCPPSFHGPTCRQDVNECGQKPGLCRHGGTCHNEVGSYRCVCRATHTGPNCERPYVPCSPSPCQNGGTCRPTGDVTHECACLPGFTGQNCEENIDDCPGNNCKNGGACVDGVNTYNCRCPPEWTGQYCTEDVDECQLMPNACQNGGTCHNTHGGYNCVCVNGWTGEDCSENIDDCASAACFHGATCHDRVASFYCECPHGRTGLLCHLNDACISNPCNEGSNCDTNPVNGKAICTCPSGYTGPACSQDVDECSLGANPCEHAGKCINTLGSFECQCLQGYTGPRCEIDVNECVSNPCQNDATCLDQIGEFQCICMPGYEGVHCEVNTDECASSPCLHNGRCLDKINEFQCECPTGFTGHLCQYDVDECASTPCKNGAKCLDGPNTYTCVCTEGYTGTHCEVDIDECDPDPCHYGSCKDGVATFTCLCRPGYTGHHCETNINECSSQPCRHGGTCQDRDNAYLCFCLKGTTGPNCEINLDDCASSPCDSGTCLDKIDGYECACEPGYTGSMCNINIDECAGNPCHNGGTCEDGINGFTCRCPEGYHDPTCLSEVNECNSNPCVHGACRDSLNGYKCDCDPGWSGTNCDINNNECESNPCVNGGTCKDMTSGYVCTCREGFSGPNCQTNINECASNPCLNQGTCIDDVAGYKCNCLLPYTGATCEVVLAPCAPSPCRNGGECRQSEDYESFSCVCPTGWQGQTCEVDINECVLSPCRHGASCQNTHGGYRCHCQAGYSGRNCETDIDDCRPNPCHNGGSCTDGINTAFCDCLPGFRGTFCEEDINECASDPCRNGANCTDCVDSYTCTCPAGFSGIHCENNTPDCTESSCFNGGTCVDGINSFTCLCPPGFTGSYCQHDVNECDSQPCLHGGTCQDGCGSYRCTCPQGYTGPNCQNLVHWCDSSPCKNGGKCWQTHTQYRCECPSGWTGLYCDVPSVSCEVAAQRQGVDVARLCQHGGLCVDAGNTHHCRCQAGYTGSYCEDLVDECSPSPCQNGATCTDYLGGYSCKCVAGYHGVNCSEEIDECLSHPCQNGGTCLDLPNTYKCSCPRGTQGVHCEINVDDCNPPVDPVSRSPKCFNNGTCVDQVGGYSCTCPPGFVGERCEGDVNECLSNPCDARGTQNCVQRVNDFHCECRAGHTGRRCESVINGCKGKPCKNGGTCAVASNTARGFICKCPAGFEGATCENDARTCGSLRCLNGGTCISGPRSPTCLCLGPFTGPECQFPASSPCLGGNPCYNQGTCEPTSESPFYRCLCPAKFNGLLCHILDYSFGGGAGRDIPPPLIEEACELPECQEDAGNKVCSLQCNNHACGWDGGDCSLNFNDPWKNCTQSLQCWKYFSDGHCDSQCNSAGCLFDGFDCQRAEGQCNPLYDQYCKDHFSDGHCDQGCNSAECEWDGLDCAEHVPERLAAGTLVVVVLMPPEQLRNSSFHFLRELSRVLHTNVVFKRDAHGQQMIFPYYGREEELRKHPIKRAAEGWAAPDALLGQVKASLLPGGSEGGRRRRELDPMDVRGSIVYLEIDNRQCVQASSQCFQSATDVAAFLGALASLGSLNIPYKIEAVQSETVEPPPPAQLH

[3] = target: T2, recombinant Fc-tag-fused human Notch-1 …; assay: BLI; Octet RED384; Fabs immobilised on amine-reactive generation-2 or anti-Fab CH1 biosensors, target proteins in solution at three or more concentrations; 25 C, PBS; global 1:1 fit; apparent KD (Fc-Notch proteins may dimerize, avidity); details: both partners purified
[4] = target: T3, recombinant Fc-tag-fused human Notch-1 extracellular domain (Homo sapiens, UniProt P46531); assay: BLI; Fabs immobilised on amine-reactive generation-2 or anti-Fab CH1 biosensors, target proteins in solution at at least three concentrations; 25°C, PBS; global fit to a 1:1 binding model; apparent constants (Fc fusions may dimerize); details: both partners purified
T3 construct: Notch-1, human, extracellular domain; the R&D Systems product may hold only part of the ectodomain (surmise); also called N1; Fc-Notch; source: bought: R&D Systems
T3 sequence (P46531 19-1735): as above

[5] = target: T2, recombinant Fc-tag-fused human Notch-1 …; assay: ELISA; phage-ELISA: Notch-1 and control proteins immobilised at 5 ug/ml on MaxiSorp plates; phage-displayed Fab at 10^12 PFU/ml in PBT for 30 min; detected with HRP-conjugated anti-M13 antibody, Abs450; details: one partner purified

Row | Binder | EC50 [2] [nM] | Kd [3] [nM] | koff [4] [s⁻¹] | kon [4] [M⁻¹ s⁻¹] | further results
1 | Fab N1/F/R1 (purified soluble Fab) (Fab, V domains shown, light chain on the modified trastuzumab framework of Library-F (Persson et al., 2013); CDRs L1 and L2 fixed; clone reconstructed from NGS information; Fab heavy chain on the modified trastuzumab framework of Library-F; medium CDRH3 length; The Fab is detected by an anti-HIS antibody; source: E. coli BL21, purified (Protein-L resin)) VH: EVQLVESGGGLVQPGGSLRLSCAASGFNIYSSYIHWVRQAPGKGLEWVASIYPYYGSTYYADSVKGRFTISADTSKNTAYLQMNSLRAEDTAVYYCARYAHFSVYGAMDYWGQGTLVTVSS VL: DIQMTQSPSSLSASVGDRVTITCRASQSVSSAVAWYQQKPGKAPKLLIYSASSLYSGVPSRFSGSRSGTDFTLTISSLQPEDFATYYCQQWYGGYALFTFGQGTKVEIK | ~4 | 1.98 |  |  | binding result [1]: binds
2 | Fab N1/F/R1 (Fab, V domains shown, Library-F rare Fab reconstructed from NGS information, modified trastuzumab framework; Library-F rare Fab reconstructed from NGS information, modified trastuzumab framework, CDRs L1 and L2 fixed; The Fab has a His tag (detected with anti-HIS antibody and biosensors); Library-F framework: Persson et al., 2013; source: E. coli BL21, purified (Protein-L resin)) VH: EVQLVESGGGLVQPGGSLRLSCAASGFNIYSSYIHWVRQAPGKGLEWVASIYPYYGSTYYADSVKGRFTISADTSKNTAYLQMNSLRAEDTAVYYCARYAHFSVYGAMDYWGQGTLVTVSS VL: DIQMTQSPSSLSASVGDRVTITCRASQSVSSAVAWYQQKPGKAPKLLIYSASSLYSGVPSRFSGSRSGTDFTLTISSLQPEDFATYYCQQWYGGYALFTFGQGTKVEIK |  |  | 0.000154 | 76400 | 
3 | phage-displayed Fab N1/ModF/1 (Fab, V domains shown, light chain on the modified trastuzumab framework of the Modified-F library (template: anti-MBP Fab phagemid of Library-F, Persson et al., 2013); CDRs L1 and L2 fixed; Fab heavy chain on the modified trastuzumab framework of the Modified-F library; The Modified-F library uses an M13 system that allows bivalent Fab display) VH: EVQLVESGGGLVQPGGSLRLSCAASGFNLYSSYMHWVRQAPGKGLEWVAYISPSYSYTYYADSVKGRFTISADTSKNTAYLQMNSLRAEDTAVYYCARWGHSPSGVGWYGALDYWGQGTLVTVSS VL: DIQMTQSPSSLSASVGDRVTITCRASQSVSSAVAWYQQKPGKAPKLLIYSASSLYSGVPSRFSGSRSGTDFTLTISSLQPEDFATYYCQQPSSHSAALITFGQGTKVEIK |  |  |  |  | binding result [5]: binds
4 | Fab N1/ModF/5 (Fab, V domains shown, Modified-F library Fab on a modified trastuzumab framework; Modified-F library Fab on a modified trastuzumab framework, CDRs L1 and L2 fixed; The Fab has a His tag (detected with anti-HIS antibody and biosensors); Template phagemid derived from the anti-MBP Fab of Library-F (Persson et al., 2013); source: E. coli BL21, purified (Protein-L resin)) VH: EVQLVESGGGLVQPGGSLRLSCAASGFNISSSYMHWVRQAPGKGLEWVASIYSYSGSTYYADSVKGRFTISADTSKNTAYLQMNSLRAEDTAVYYCARSGYSGVSGSVYSYWPFYGLDYWGQGTLVTVSS VL: DIQMTQSPSSLSASVGDRVTITCRASQSVSSAVAWYQQKPGKAPKLLIYSASSLYSGVPSRFSGSRSGTDFTLTISSLQPEDFATYYCQQGPYHGYSLITFGQGTKVEIK |  |  | 8.15e-05 | 124000 | 
5 | Fab N1/ModF/2 (purified soluble Fab) (Fab, V domains shown, light chain on the modified trastuzumab framework of the Modified-F library (template: anti-MBP Fab phagemid of Library-F, Persson et al., 2013); CDRs L1 and L2 fixed; Fab heavy chain on the modified trastuzumab framework of the Modified-F library; long CDRH3; The Fab is detected by an anti-HIS antibody; source: E. coli BL21, purified (Protein-L resin)) VH: EVQLVESGGGLVQPGGSLRLSCAASGFNLYSSYIHWVRQAPGKGLEWVAYISPYSGSTYYADSVKGRFTISADTSKNTAYLQMNSLRAEDTAVYYCARYGYAYHPYHSGYWYGALDYWGQGTLVTVSS VL: DIQMTQSPSSLSASVGDRVTITCRASQSVSSAVAWYQQKPGKAPKLLIYSASSLYSGVPSRFSGSRSGTDFTLTISSLQPEDFATYYCQQVSAGYGPPITFGQGTKVEIK | 1.7 | 0.16 |  |  | 
6 | Fab N1/ModF/2 (Fab, V domains shown, Modified-F library Fab on a modified trastuzumab framework; Modified-F library Fab on a modified trastuzumab framework, CDRs L1 and L2 fixed; The Fab has a His tag (detected with anti-HIS antibody and biosensors); Template phagemid derived from the anti-MBP Fab of Library-F (Persson et al., 2013); source: E. coli BL21, purified (Protein-L resin)) VH: EVQLVESGGGLVQPGGSLRLSCAASGFNLYSSYIHWVRQAPGKGLEWVAYISPYSGSTYYADSVKGRFTISADTSKNTAYLQMNSLRAEDTAVYYCARYGYAYHPYHSGYWYGALDYWGQGTLVTVSS VL: DIQMTQSPSSLSASVGDRVTITCRASQSVSSAVAWYQQKPGKAPKLLIYSASSLYSGVPSRFSGSRSGTDFTLTISSLQPEDFATYYCQQVSAGYGPPITFGQGTKVEIK |  |  | 1.91e-05 | 158000 | 
7 | Fab N1/ModF/5 (purified soluble Fab) (Fab, V domains shown, light chain on the modified trastuzumab framework of the Modified-F library (template: anti-MBP Fab phagemid of Library-F, Persson et al., 2013); CDRs L1 and L2 fixed; Fab heavy chain on the modified trastuzumab framework of the Modified-F library; long CDRH3; The Fab is detected by an anti-HIS antibody; source: E. coli BL21, purified (Protein-L resin)) VH: EVQLVESGGGLVQPGGSLRLSCAASGFNISSSYMHWVRQAPGKGLEWVASIYSYSGSTYYADSVKGRFTISADTSKNTAYLQMNSLRAEDTAVYYCARSGYSGVSGSVYSYWPFYGLDYWGQGTLVTVSS VL: DIQMTQSPSSLSASVGDRVTITCRASQSVSSAVAWYQQKPGKAPKLLIYSASSLYSGVPSRFSGSRSGTDFTLTISSLQPEDFATYYCQQGPYHGYSLITFGQGTKVEIK | 2.4 | 0.68 |  |  | 
8 | phage-displayed Fab N1/F/R2 (Fab, V domains shown, as the light chain of m15; as the heavy chain of m15; Reconstructed by Kunkel mutagenesis in the MBP phagemid) VH: EVQLVESGGGLVQPGGSLRLSCAASGFNFSSSSIHWVRQAPGKGLEWVASIYSYYGYTYYADSVKGRFTISADTSKNTAYLQMNSLRAEDTAVYYCARSWWGGSWYAALDYWGQGTLVTVSS VL: DIQMTQSPSSLSASVGDRVTITCRASQSVSSAVAWYQQKPGKAPKLLIYSASSLYSGVPSRFSGSRSGTDFTLTISSLQPEDFATYYCQQWWSLITFGQGTKVEIK |  |  |  |  | fold weaker phage-ELISA signal than the high-frequency Fabs [5]: ~4 fold
